Test results as given in the DeepSol protein solubility set.

Assay: soluble on expression in E. coli; label from the status in PepcDB or PDB records
With “MSDEWEQLTVELRKIPRGTEAAPQYLRHLMKMFVADFETAVSKRFDVKFWNKLKSMMDEITKAMENDRLVNHNVQNLAIGFLTDLSLLVHYHYEIPNYGNDISKQLTWTPDVFLNRKPIKSKKNSRVFMAYVLLRMGDLMRYKENYPKAQEYYEQSCRINPADGAVWNQLGLISSLGAKNLESVYFHTRALHATMEFPTASGGLTNIFKNFANRDISRPMPIKDLYLSCLGRIHFLLEIEDSSVHLQKIGEEAATSKEMIVPLMSVYKHLEDGTELEQRAVEYVKTIWCTAYRSLLKTLDDYKEESKKLADVPHLLHILALLLCAPKLLRGIEDQTEDEVTSICEWLLCANCDEKIKDSDAFGYFHCLQRIQYPLTRTQLAQKLVEIEDEDESKDSDQSTIPEEDQKSLSTDTSRIQNEDSEPESESESSDEEVLQRGRRRGRNPNLDESVETDEDEF” the “soluble on expression in E. coli” value was “not soluble”.
In the case of “MGSDKIHHHHHHMSNQHSWALSMNQIENCSCSHGCGCQFGGFPTSKDGGCEAILGFEILKGHFNDLDLSGLKMVFAAAWPSAMHEGNGKGALFIDNSANEEQVGALATIMSGQAGGMPVEVLGTLFSEFDGPIMADIKLNRQDYTSTVTIEGIIEVEQEPHINPVTGEINEVHISFPKGGFMWNDGFAGKTKLMKINHGNMAFSYSDTFAANAVVNWPNA”, the “soluble on expression in E. coli” value is reported as “not soluble”.
In the case of “SREIDYTAYPWFAGNMERQQTDNLLKSHASGTYLIRERPAEAERFAISIKFNDEVKHIKVVEKDNWIHITEAKKFDSLLELVEYYQCHSLKESFKQLDTTLKYPY”, the “soluble on expression in E. coli” value is reported as “soluble”.
In the case of “MAVIEAEGLWKIFGGDPERARTLAKEGMSKAEVKEETGSVIAVDDANFEVQEQEIFVVMGLSGSGKSTLLRCVNRLIEPTFGKVHVHDDEVTAFDEDRLRKLRRTKMSMVFQNFGLFPHRTVIGNVEYGLEVAGMDKEKRRGKARQSLELVGLDGYEDSQTSQLSGGMQQRVGLARALVNDPEILLMDEAFSALDPLIRADMQNELLELQEQWDPACTILFITHDLDEALKMGDRIAIMKDGRIAQIGTPTEILTEPADEYVRSFVENVDRTKIVPARTVMRALGDDETVAADGPSVSPHTPIAELLPALVDADGPLAVRDSGGTLQGVVSQDAVMEEVVQNADGARRRDARAGRTDEDPEAAVALEHHHHHH”, the “soluble on expression in E. coli” value is reported as “soluble”.
For “MGSDKIHHHHHHMKILIIPNRGRSYNAVRPEAECYIALAEAGHDVTVISSGTNAYIDRYKKSKVKFIELKTLKKHSWAVIKQIRQYIKANNIDIVYATESKGIPNAAFACIGTKAKLVVYRGTSGGMYKTDPSNYLCMLHPRINGVIGVSSAVSANVREKVRGAIKANVETIYKGHDLSWYKEDAADLVSLGSNKKYFNILCVGSPRHHKGTHILLDAAKELNDIEDLRIILVGDNLDKQAFIDQINNSGMSEHILQPGFRSDVPAIAKACDLLILPSLSKEGLTRTVLESLSNGTPVVSSANDGVVETIENGFNGYLVPIGDVQAMADKIRMLYNDRVLLEKLSNHAQDIIKDKMSHHKTVTHMEAYFEKIIAQN”, the “soluble on expression in E. coli” value was “not soluble”.
In the case of “NIDGYNELTVGELTGPTTIETFPTPDLPGGLAGGVSWGPDAERFAVSVTGRTVNTNVFVVETETGESEQWTAASTAGIPQETLIEPEVVRFDSFDGREIPALFSPPDGAADGAGADGDTPVIVDIHGGPESQRRPSFSGLTQYFLSRGYAVFEPNVRGSTGYGKAYTHLDDVEKRMDSVKDLRAGVDWLHNHPAVDPDRIVAMGGSYGGFMVLAALTEYPDLWAAGVDVVGIANFVTFLENTGDWRRELREAEYGSLDTDREFLESISPINNVDRINAPLFVLHGANDPRVPVGEAEQIAEQAAEQGVPVEKLVFDDEGHGISKRENRIEAYTAVVEFLDDHV”, the “soluble on expression in E. coli” value is reported as “not soluble”.
With “MSRRASKRPAPYPLLCEQKPEDLLVAPVEHKVYQDFEPKRPREFSPVMAQSLPPGEIDFQPSKIIFNAPYNENQESKIKLINTSALRIAYGINTYMKRLRVDTMCTPNCGVLDPSEEILLTISCDAFAFGQVDTTNDRITVEWTNTSEGSTKQFCRDWLDGDGMVRRKTLPIEYSSSPIAQTSSAPLLQASKHGMWLPIGFAASELYDYAKGEPLDRKTCEKNLEKLIKNDRDVDYYEWLNFAKRCRTQNQNLMEEMALGMAFTTAMANKQHRKISRKAEKITEPITTNKAFSIDSAEKFDRALTLPSRKWFMISDVVTDGDVSNWSTANLVTLVRALARTVFDKVAIADPHMMCYATSQNASTYIPIARDFFEGFAEYILGGFGEEQSRDLKFRVRKLVTDVMGNKLDRVRGRHNKMYGNEASEDATRWLREQLRKEDGELKESRLIFPNGSEMMCNYQVNEENPEGSIKSEIFNDEEEVEME” the “soluble on expression in E. coli” value was “not soluble”.
In the case of “MKRILVVFLMLAIILAGCSNKGEKYQKDIDKVYKEQNQMNKIASKVQNTIKTDIKQEDSNTHVYKDGKVIVIGIQLYKDREKMYYFAYEIKDGKAEINREIDPIKYMKDHKADYEDENVEVEKDMAGDPLEHHHHHH”, the “soluble on expression in E. coli” value is reported as “not soluble”.
In the case of “MSLQVSKFKNLPKIELHLHLDCSLSYDVVKKIDPTVDIKHYKSSFQAGESCSSLKDYLKCADNAIELMQTKENLQFIVEDLFKQLHDDNVIYAEIRFAPLLHCEGDLNAKKVVDIICMSALIQSKKYNIDYGLILCTLRHYSEDESLKTVKLVKEFSEKGVVGFDIAADEAGYPIDNHIKAFTYAKNNNLNITAHAGEAKGSESIWETINKLYAKRIGHGVRCLEDKKLVKFLSDNNYHLEICLTSNIKTNTFDLFTDHPINEIYDSSISLSLNTDGRAISNTSLSKEYAIAHSELNWSMKKIIQSNLNAIEHAFTTNEKKEKLRKHLKSFSEGHHHHHH”, the “soluble on expression in E. coli” value is reported as “soluble”.
For “MPIPNNPGAGENAFDPVFVNDDDGYDLDSFMIPAHYKKYLTKVLVPNGVIKNRIEKLAYDIKKVYNNEEFHILCLLKGSRGFFTALLKHLSRIHNYSAVETSKPLFGEHYVRVKSYCNDQSTGTLEIVSEDLSCLKGKHVLIVEDIIDTGKTLVKFCEYLKKFEIKTVAIACLFIKRTPLWNGFKADFVGFSIPDHFVVGYSLDYNEIFRDLDHCCLVNDEGKKKYKATSL”, the “soluble on expression in E. coli” value was “soluble”.
For “MNESGFLIDTHAHIDGHDFAADFDAMLSRAWEAGLSHIVTVGADLESSRAAVALAGRHERIWCAVGIHPHDAGRVTDRCYDEIRTLAQGNPKVAAIGEIGLDFFRDRSPRDEQEQVFRRFIRLARELALPIVVHDRDAHERVMAILREEKARDVGGVLHCFSGDLAMARECVDMGFLISIPGTVTYPSNEALREVVRGVKIEHLLVETDCPYLTPVPHRGKRNEPAYVRLTAEKVAELKGLSLEDVGRITSLNARRLFGIGESDQAARIAYRIRNSLYLNITNRCSNRCSFCAKFDDYTVKGHHLRLDHEPDSAEVLAAVGEPGPVDEIVFCGFGEPMLRLDLIVEVARELKKRGFRIRINTDGQANLVHGRNVLPELQGLVDCISVSLNAADADTYARLCNTPFGTNGFNGICRFLEEARLYIPTVVATAVTVPGIDVAAVRALAESLGVEFREREFAEVGLEHHHHHH”, the “soluble on expression in E. coli” value was “soluble”.
For “MSLKIAIVGGPTAVGKTDIMIEVCEEIGAEIISMDSRQIYRYMDIGTAKPTPEQRKRVLHHMIDIIDPDEYYNAFMYRKDSLRAMEDVLRRGKIPVYVGGTGLYADALVRGIFEGVPADENIRKELRELERREPGILRKMLEELDPEAATRIHPNDLKRTIRALEVYMKTGRRISELQKEAKGDDRFFIIVLTRERYELYERINKRVDKMIEMGLVDEVKRLLGMGYSKDLNSMKTIGYKEVIDYLEGKYDFDKMVHLIKRNTRHFARRQIIWFKRYKEAVWYNLTFEDVGEVKEKLKKLIVENFSVEGHHHHHH”, the “soluble on expression in E. coli” value was “soluble”.
For “MSLDSYRTARLMQEGVTYPVIVRPHNQILENRINRIIRETAEELLPSGRYRTMNIITAASEYETTVNKNEILSIRFENYYYPEMMASGITVVRAVTLNLVTGRRYRLKDLFIPGIDYEDYLNRLIERQIEERDIPLINDFPGITGNEVFYLTEGELVIVYQRYELTPGYYGVLEFEIPYEELQPLIDETSPIYMIAQNSEGHHHHHH”, the “soluble on expression in E. coli” value was “soluble”.
With “MKIISEGETKLMVPEESTLSKKDTVFYNPVMETNRDISVSVVQSFLDDFKRDEFLMCDPLGGSGARGIRYAKELKFNGDLKVSIGDINPSAVKMIKENLKLNELENVEVFHEDANVLLSKNFKVFNVVDLDPFGSPVPYLDSGIRASLTKGGLLCMTATDTAVLCGAYRKTCIRKYNAVPLKGDKELAVRLMIGYAVKMASKYDIGLKPIFSHVTDHYARTFMVTERGAGKADSAIENLGYIRQDSEQKSFKTFEEGSEKGYAGPFYLGEISDKNIVQNALNTAKTRNYSKRAVNILEMISRESEINQVGCFDIHELCSFIKKLVPPVNDIMENLKENGFKVTRVHYNPYGLKTDAELSDLVVLISEYHSKKYLEHHHHHH” the “soluble on expression in E. coli” value was “not soluble”.
